B1: BCL2 3' UTR construct 1 (ssRNA)
RNA: GGCUCCACCUGGAUGUUCUGUGCCUGUAAACAUAGAUUCGCUUUCCAUGUUGUUGGCCGGAUCACCAUCUGAAGAGCAGACGGAUGGAAAAAGGACCUGAUCAUUGGGGAAGCUGGCUUUCUGGCUGCUGGAGGCUGGGGAGAAGGUGUUCAUUCACUUGCAUUUCUUUGCCCUGGG
B2: BCL2 3' UTR construct 4 (ssRNA)
RNA: GCCCUCCAGAUAGCUCAUUUCAUUAAGUUUUUCCCUCCAAGGUAGAAUUUGCAAGAGUGACAGUGGAUUGCAUUUCUUUUGGGGAAGCUUUCUUUUGGUGGUUUUGUUUAUUAUACCUUCUUAAGUUUUCAACCAAGGUUUGCUUUUGUU
B3: BCL2 3' UTR construct 2 (ssRNA)
RNA: GCCCUCCUGCCCUCCUUCCGCGGGGGCUUUCUCAUGGCUGUCCUUCAGGGUCUUCCUGAAAUGCAGUGGUGCUUACGCUCCACCAAGAAAGCAGGAAACCUGUGGUAUGAAGCCAGACCUCCCCGG
B4: BCL2 3' UTR construct 3 (ssRNA)
RNA: GCCUGUUUUGUCUUUUGUUGUUGUUCAAACGGGAUUCACAGAGUAUUUGAAAAAUGUAUAUAUAUUAAGAGGUCACGGGGGCUAAUUGCUGGCUGGCUGCCUUUUGCUGUGGGGUUUUGUU
B5: OAZ1 3' UTR (ssRNA)
RNA: GGCCGCCUCGGGGCUGGGCAUCCGGCCCCUGGGGCCACCCCUUGUCAGCCGGGUGGGUAGGAACCGUAGACUCGCUCAUCUCGCCUGGGUUUGUCCGCAUGUUG

How the values were obtained:
LARP1 full length [1] = target: T1, LARP1 full length (UniProt Q6PKG0-3 1-1019); experiment: EMSA; judged non-specific; Kd only in figure; 20 mM Tris-HCl pH 8, 150 mM NaCl, 10% glycerol, 1 mM DTT, 1 ug BSA, 0.5 ug tRNA, RNA <2 nM, 30 min on ice; native PAGE at 4 C; settings: protein: recombinant; tags: N-terminal 6xHis-MBP, removed by TEV cleavage; label: 5'-32P
LARP1 full length [2] = target: T1, LARP1 full length; experiment: EMSA; tRNA and BSA present; Kd only in figure; 20 mM Tris-HCl pH 8, 150 mM NaCl, 10% glycerol, 1 mM DTT, 1 ug BSA, 0.5 ug tRNA, RNA <2 nM, 30 min on ice; native PAGE at 4 C; settings: protein: recombinant; tags: N-terminal 6xHis-MBP, removed by TEV cleavage; label: 5'-32P in direct EMSA
LARP1 full length [3] = target: T1, LARP1 full length; experiment: competition; vs 32P-RPS6, 1-30 uM cold RNA; 20 mM Tris-HCl pH 8, 150 mM NaCl, 10% glycerol, 1 mM DTT, 1 ug BSA, 0.5 ug tRNA, RNA <2 nM, 30 min on ice; native PAGE at 4 C; settings: protein: recombinant; tags: N-terminal 6xHis-MBP, removed by TEV cleavage; label: 5'-32P in direct EMSA

Binder	binding signal (LARP1 full length [1])	other results
B1	~0.25 affinity relative to BCL2 construct 3	–
B2	~0.25 affinity relative to BCL2 construct 3	–
B3	~0.25 affinity relative to BCL2 construct 3	–
B4	–	binding signal (LARP1 full length [2]): ~4 fold higher affinity than other BCL2 constructs
B5	–	binding result (LARP1 full length [3]): no binding
